The record followed here is publication doi:10.1101/2021.01.13.426511.

pKd: −log10 of the molar value.

In this test the target is phospho His-cSrcKD-K295M/Y416F (human). Put plainly: BLI. (In BLI a coated tip is dipped into the sample, and binding shifts an interference pattern.)

For orientation: pKd means −log10 of the Kd, conventionally taken in molar units. What is called kon is the rate constant with which the complex forms. The low end stands for slow association, the high end for fast association. Consider “rPTPεD1-C335S (D1 domain of receptor protein tyrosine phosphatase epsilon, substrate-trapping mutant) (domain or fragment)”, for which the pKd was 4.47 and the kon turned out to be 998 M⁻¹ s⁻¹.
As for “rPTPεD1-C335S/R220E (domain or fragment)”, the pKd was 3.59 and the on-rate (kon) came to 128 M⁻¹ s⁻¹.
